The source of these data is publication PMC2888511.

In assay [1] the target is Beclin 1 (UniProt Q14457). Put plainly: anti-flag IP of flag-Beclin 1, HA-Vps34 blot. The settings on record: reference: wild type with Cdk5/p25; sites T159.
The target of assay [2] is Beclin 1 (UniProt Q14457). Briefly: anti-flag IP of flag-Vps34, GFP-Beclin 1 blot. The settings on record: reference: wild type with Cdk5/p25; sites T159.

For “Vps34 (from UniProt Q8NEB9) T159A with Cdk5/p25”, the “binding against the reference” value with Beclin 1 [1] and with Beclin 1 [2] was “stronger” in each case.
